Data from IntAct's records for PubMed 29051512.

B1: CMRF35-like molecule 7 (Homo sapiens), A8K4G0 (parent)
chain: MWLPPALLLLSLSGCFSIQGPESVRAPEQGSLTVQCHYKQGWETYIKWWCRGVRWDTCKILIETRGSEQGEKSDRVSIKDNQKDRTFTVTMEGLRRDDADVYWCGIERRGPDLGTQVKVIVDPEGAASTTASSPTNSNMAVFIGSHKRNHYMLLVFVKVPILLILVTAILWLKGSQRVPEEPGEQPIYMNFSEPLTKDMAT
partner: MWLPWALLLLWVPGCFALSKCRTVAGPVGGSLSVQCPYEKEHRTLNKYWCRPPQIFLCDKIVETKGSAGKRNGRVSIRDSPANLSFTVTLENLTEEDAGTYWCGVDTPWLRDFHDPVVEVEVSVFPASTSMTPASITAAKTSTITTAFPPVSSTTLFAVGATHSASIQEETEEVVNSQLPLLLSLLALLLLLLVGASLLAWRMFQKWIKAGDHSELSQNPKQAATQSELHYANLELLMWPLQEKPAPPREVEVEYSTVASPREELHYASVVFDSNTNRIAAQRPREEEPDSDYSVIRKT
B2: CMRF35-like molecule 7 (Homo sapiens), A8K4G0 (parent)
chain: B1 chain
partner: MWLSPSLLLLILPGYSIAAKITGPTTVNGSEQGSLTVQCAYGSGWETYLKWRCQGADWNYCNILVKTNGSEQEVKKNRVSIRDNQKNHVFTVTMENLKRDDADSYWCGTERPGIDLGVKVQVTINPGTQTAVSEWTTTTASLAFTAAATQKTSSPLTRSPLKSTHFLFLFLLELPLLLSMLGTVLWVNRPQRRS
B3: CMRF35-like molecule 7 (Homo sapiens), A8K4G0 (parent)
chain: B1 chain
partner: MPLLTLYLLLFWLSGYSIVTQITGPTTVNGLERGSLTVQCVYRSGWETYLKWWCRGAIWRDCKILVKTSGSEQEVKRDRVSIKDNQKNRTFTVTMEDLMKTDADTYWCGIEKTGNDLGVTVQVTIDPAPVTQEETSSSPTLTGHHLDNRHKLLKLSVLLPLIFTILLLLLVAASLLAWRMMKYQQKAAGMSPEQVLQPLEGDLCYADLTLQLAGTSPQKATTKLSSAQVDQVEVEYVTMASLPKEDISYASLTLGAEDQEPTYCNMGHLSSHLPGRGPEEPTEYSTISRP
B4: CMRF35-like molecule 7 (Homo sapiens), A8K4G0 (parent)
chain: B1 chain
partner: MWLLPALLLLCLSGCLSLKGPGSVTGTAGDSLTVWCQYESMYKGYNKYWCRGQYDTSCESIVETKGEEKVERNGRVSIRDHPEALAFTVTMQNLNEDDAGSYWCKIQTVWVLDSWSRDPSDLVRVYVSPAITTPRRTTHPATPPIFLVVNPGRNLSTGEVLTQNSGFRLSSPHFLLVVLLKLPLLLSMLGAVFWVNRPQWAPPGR
B5: CMRF35-like molecule 7 (Homo sapiens), A8K4G0 (parent)
chain: B1 chain
partner: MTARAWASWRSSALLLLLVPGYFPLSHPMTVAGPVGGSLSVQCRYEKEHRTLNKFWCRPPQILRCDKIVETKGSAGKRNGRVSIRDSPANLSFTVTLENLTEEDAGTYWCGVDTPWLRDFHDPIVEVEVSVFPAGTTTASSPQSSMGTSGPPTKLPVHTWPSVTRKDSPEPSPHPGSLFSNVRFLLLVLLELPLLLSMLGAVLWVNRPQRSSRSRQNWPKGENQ

Variants of: B1
Conditions: with clm8_human CD300A

effect of a mutation on the interaction	Variant
decreasing interaction strength	MWLPPALLLLSLSGCFSIQGPESVRAPAGGSLTVQCHYKQGWETYIKWWCRGVRWDTCKILIETRGSEQGEKSDRVSIKDNQKDRTFTVTMEGLRRDDADVYWCGIERRGPDLGTQVKVIVDPEGAASTTASSPTNSNMAVFIGSHKRNHYMLLVFVKVPILLILVTAILWLKGSQRVPEEPGEQPIYMNFSEPLTKDMAT [E28A;Q29G]

Variants of: B2
Conditions: with clm5_human CD300LD

effect of a mutation on the interaction	Variant
decreasing interaction strength	MWLPPALLLLSLSGCFSIQGPESVRAPAGGSLTVQCHYKQGWETYIKWWCRGVRWDTCKILIETRGSEQGEKSDRVSIKDNQKDRTFTVTMEGLRRDDADVYWCGIERRGPDLGTQVKVIVDPEGAASTTASSPTNSNMAVFIGSHKRNHYMLLVFVKVPILLILVTAILWLKGSQRVPEEPGEQPIYMNFSEPLTKDMAT [E28A;Q29G]

Variants of: B3
Conditions: with clm1_human CD300LF

effect of a mutation on the interaction	Variant
decreasing interaction strength	MWLPPALLLLSLSGCFSIQGPESVRAPAGGSLTVQCHYKQGWETYIKWWCRGVRWDTCKILIETRGSEQGEKSDRVSIKDNQKDRTFTVTMEGLRRDDADVYWCGIERRGPDLGTQVKVIVDPEGAASTTASSPTNSNMAVFIGSHKRNHYMLLVFVKVPILLILVTAILWLKGSQRVPEEPGEQPIYMNFSEPLTKDMAT [E28A;Q29G]

Variants of: B4
Conditions: with clm2_human CD300E

effect of a mutation on the interaction	Variant
decreasing interaction strength	MWLPPALLLLSLSGCFSIQGPESVRAPAGGSLTVQCHYKQGWETYIKWWCRGVRWDTCKILIETRGSEQGEKSDRVSIKDNQKDRTFTVTMEGLRRDDADVYWCGIERRGPDLGTQVKVIVDPEGAASTTASSPTNSNMAVFIGSHKRNHYMLLVFVKVPILLILVTAILWLKGSQRVPEEPGEQPIYMNFSEPLTKDMAT [E28A;Q29G]

Variants of: B5
Conditions: with clm6_human CD300C

effect of a mutation on the interaction	Variant
with no effect	MWLPPALLLLSLSGCFSIQGPESVRAPEQGSLTVQCHYKQGWETYIKWWCRGVRWDTCKILIETRGSEQGEKSDRVSIKDNQKDRTFTVTMEGLGRGDADVYWCGIERRGPDLGTQVKVIVDPEGAASTTASSPTNSNMAVFIGSHKRNHYMLLVFVKVPILLILVTAILWLKGSQRVPEEPGEQPIYMNFSEPLTKDMAT [R95G;D97G]
decreasing interaction strength	MWLPPALLLLSLSGCFSIQGPESVRAPAGGSLTVQCHYKQGWETYIKWWCRGVRWDTCKILIETRGSEQGEKSDRVSIKDNQKDRTFTVTMEGLRRDDADVYWCGIERRGPDLGTQVKVIVDPEGAASTTASSPTNSNMAVFIGSHKRNHYMLLVFVKVPILLILVTAILWLKGSQRVPEEPGEQPIYMNFSEPLTKDMAT [E28A;Q29G]
